Assay results from patent US20260137783A1 (CRISPR THERAPEUTICS, published 2026).

Biological target: T1, Cell surface CD117 on CD117+ cells (SKMEL / SKMEL-3 cells, CD34+ cells / HSPCs, Kasumi-1 cells) (UniProt P10721 26-976, limits assumed)
T1 construct: whole, on cells; also called cKIT; C-kit
Assay: flow cytometry on SKMEL cells and CD34 cells (both CD117+)

T1 sequence (P10721 26-976 limits assumed): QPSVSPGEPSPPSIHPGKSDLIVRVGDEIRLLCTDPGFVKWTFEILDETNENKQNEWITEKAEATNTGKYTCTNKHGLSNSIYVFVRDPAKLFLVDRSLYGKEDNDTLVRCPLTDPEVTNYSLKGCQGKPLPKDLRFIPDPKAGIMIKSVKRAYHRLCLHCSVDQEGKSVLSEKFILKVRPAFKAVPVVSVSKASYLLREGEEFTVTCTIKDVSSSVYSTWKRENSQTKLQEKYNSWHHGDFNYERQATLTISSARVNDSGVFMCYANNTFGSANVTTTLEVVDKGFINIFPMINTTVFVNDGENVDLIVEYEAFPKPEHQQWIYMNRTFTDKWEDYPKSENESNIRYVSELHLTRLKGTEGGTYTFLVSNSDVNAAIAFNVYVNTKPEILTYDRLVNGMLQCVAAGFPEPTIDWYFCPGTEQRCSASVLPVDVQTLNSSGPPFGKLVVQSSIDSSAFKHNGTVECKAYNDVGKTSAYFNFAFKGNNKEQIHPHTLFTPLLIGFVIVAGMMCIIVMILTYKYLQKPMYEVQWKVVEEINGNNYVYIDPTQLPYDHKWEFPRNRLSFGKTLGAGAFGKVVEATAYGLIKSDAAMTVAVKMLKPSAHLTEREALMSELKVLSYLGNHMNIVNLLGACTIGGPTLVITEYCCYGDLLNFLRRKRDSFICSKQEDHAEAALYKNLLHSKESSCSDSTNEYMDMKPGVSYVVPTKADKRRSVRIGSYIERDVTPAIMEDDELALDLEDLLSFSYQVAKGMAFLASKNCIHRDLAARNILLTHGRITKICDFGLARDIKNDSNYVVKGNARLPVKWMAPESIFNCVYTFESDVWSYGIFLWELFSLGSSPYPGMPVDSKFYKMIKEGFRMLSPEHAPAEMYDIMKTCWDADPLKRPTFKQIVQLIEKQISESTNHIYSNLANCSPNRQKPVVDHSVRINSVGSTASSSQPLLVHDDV

Binder	binding result
Anti-CD117 VHH P31 (monovalent form) (VHH, Secreted from Expi293 cells) VHH: EVQLVESGGGLVRAGGSLRLSCAASGRTFTYDARAWFRQAPGKEREFVAAISWSGGSTYYPNSMKGRFTISRDNAKNTVYLQMNSLKPEDTAVYYCAADESFPAYYSDYALYRYWGQGTLVTVSS	binds
Anti-CD117 VHH P29 (monovalent form) (VHH, Secreted from Expi293 cells) VHH: QVHLVESGGGLVQAGGSLGLSCAASGHTFSNYAMGWFRQAPGKEREFVAAISWSGGSTLYADSVKGRFTISRDNGENTVYLQMNSLKPEDTAVYYCALDSTGVYGTGYVSSRKGRYEYWGQGTLVTVSS	binds
Anti-CD117 VHH P38 (monovalent form) (VHH) VHH: EVQLVESGGGLVQAGGSLRLSCAASGRTSGSYVMGWFRQAPGKEREFVAAISWSAGMTYYADSVKGRFTISRDNAKNTVYLQMNSLKPEDTAVYYCAADQRGVPAYYSDYALYDYWGQGTQVTVSS	binds
Anti-CD117 VHH P35 (monovalent form) (VHH, Secreted from Expi293 cells) VHH: QVQLVESGGGLVQAGGSLRLSCAASGGTFSIYPVGWFRQAPGKQREFVAAIGWSASGTYYGDSVEGRFTVSRDNARSTVYLRMSSLKPDDTAVYYCAAASGSNWRLGAIDEYDSWGQGTQVTVSS	binds
Anti-CD117 VHH P12 (monovalent form) (VHH, Secreted from Expi293 cells) VHH: QVQLVESGGGLVQAGGSLRLSCTASGDTFSSYSMGWFRQGPGKEREFVGGIRWSGGTTYYADSVKGRFTISRDNAKNTVYLQMNSLKREDTAVYYCAAVRRRWLIWQEEEYDYWGQGTLVTVSS	binds
Anti-CD117 VHH P27 (monovalent form) (VHH, Secreted from Expi293 cells) VHH: EVQLVESGGGLVRAGGSLRLSCAASGRTTFSTYWLGWFRQAPGKNREFVAAISWSAGMAYYQDSKGRFTISRDNTKNTAYLQMNSLQPEDTAVYYCAAGRFHPIRVDTALYWAQGTQVTVSS	binds
Anti-CD117 VHH P10 (monovalent form) (VHH, Secreted from Expi293 cells) VHH: QVQLVESGGGLVQAGGSLRLSCVASGRTFSSYAMGWFRQGPGKEREFAAAILSNGLTTYYADSVKGRFTISRDNAKDTVYLQMNSLKPEDTANYYCAAAFTPEFRDGGIWDDASVDYWGQGTQVTVSS	binds
